Patent US7514408 (ELAN PHARMACEUTICALS, dated 2009)
Numbered stars: 1 amine (or outer) side, 2 acyl side, 3 side chain; on linkers, the order of the positions; unused ones are H or OH. Square brackets hold non-standard residues; d marks the D form. Ends that are not written are not given here. Ahppa(3S,4S) = O=C(C[C@H](O)[C@H](Cc1ccccc1)N[*:1])[*:2]; ACHPA = O=C(C[C@H](O)[C@H](CC1CCCCC1)N[*:1])[*:2]; Sta = CC(C)C[C@H](N)[C@@H](O)CC(=O)O; Phg = N[C@H](C(=O)O)c1ccccc1; Nle = CCCC[C@H](N)C(=O)O; norSta = nor-statine

These binders were tested against T1, β-secretase (enzyme preparation not stated for the inhibitor assays) (human, UniProt P56817 46-501, limits assumed) (assay: cell-based or functional assay).
T1 sequence (P56817 46-501 limits assumed): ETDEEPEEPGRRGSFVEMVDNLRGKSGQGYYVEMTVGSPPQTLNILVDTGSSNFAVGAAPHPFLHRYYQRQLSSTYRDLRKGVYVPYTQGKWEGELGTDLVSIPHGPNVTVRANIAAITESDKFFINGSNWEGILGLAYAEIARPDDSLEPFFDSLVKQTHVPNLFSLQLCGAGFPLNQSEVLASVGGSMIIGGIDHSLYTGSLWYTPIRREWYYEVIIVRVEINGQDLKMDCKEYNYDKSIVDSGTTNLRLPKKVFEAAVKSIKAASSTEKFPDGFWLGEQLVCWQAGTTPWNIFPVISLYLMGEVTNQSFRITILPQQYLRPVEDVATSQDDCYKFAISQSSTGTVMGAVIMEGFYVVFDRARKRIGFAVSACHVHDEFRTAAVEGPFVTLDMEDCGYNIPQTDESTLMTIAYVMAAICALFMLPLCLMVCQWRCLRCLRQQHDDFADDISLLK

Binder	IC50 Group, MBP C125 assay (Group II: =1<10 µM)	IC50 Group, MBP C125 assay (Group I: IC50 of <µm [sic])
Ac-VN[Sta]VAEF [heptamer peptide 7I (Ac-Val-Asn-Sta-Val-Ala-Glu-Phe)]	< 10 µM	
H-VM[ACHPA]VAEF [heptamer peptide 7Q ((NH2)Val-Met-acha-Val-Ala-Glu-Phe)]	< 10 µM	
Ac-VM[norSta]VAEF [heptamer peptide 7P (Ac-Val-Met-norSta-Val-Ala-Glu-Phe)]	< 10 µM	
Ac-VF[Sta]VAEF [heptamer peptide 7J (Ac-Val-Phe-Sta-Val-Ala-Glu-Phe)]	< 10 µM	
Ac-V[Nle][Sta]VAEF [heptamer peptide 7H (Ac-Val-nLeu-Sta-Val-Ala-Glu-Phe)]		< 1 µM
Ac-V[Phg][Sta]VAEF [heptamer peptide 7G (Ac-Val-Phg-Sta-Val-Ala-Glu-Phe)]		< 1 µM
Ac-VM[Sta]VAEF [heptamer peptide 7B (Ac-Val-Met-Sta-Val-Ala-Glu-Phe)]		< 1 µM
Ac-VM[Ahppa(3S,4S)]VAEF [heptamer peptide 7O (Ac-Val-Met-pheSta-Val-Ala-Glu-Phe)]		< 1 µM

Target: T1, β-secretase (enzyme preparation not …)
Assay: cell-based or functional assay
Remark: another data set of the same source

Binder	inhibitor potency relative to the valine substitution alone
KTEEISEVN[Sta]VAEF [P10-P4′staD→V]	~100 times
